Substrate in data set [1]: N
The data set is described as follows: purified protein. The settings on record: standard assay: L-Asp, ATP, Mg2+, Tris-HCl pH 8.0, 37°C, purification state of the kinetic sample not stated.

Substrate in data set [2]: N[C@@H](CC(=O)O)C(=O)O
In words: purified protein. The following applies: standard assay: NH4Cl, ATP, Mg2+, Tris-HCl pH 8.0, 37°C, purification state of the kinetic sample not stated.

Substrate in data set [3]: Nc1ncnc2c1ncn2[C@@H]1O[C@H](COP(=O)(O)OP(=O)(O)OP(=O)(O)O)[C@@H](O)[C@H]1O
The data set is described as follows: HPLC of L-Asn after OPA derivatization; double reciprocal plot. It counts as biochemical, Ligilactobacillus salivarius. The following applies: standard assay: L-Asp, NH4Cl, Mg2+, Tris-HCl pH 8.0, 37°C, purification state of the kinetic sample not stated. From the text:
HPLC of L-Asn after OPA derivatization; double reciprocal plot on LsaAS-A

B1: LsaAS-A (Ligilactobacillus salivarius UCC118) (protein)
chain: MDLIIPKDYDPKLSIRETQEAIRYIRETFQDEFGKEMGLNRVSAPMYVEKSSGINDNLNGYEKPVSFTMKDMPGETIEVVHSLAKWKRMALKKYGFGLHEGLYTNMNAIRKDEDLDNFHSSYVDQWDWEKVISKDERNEKTLKETVELIFKVVKHMEHEVWYKFPNAVYHLPDKIHFITSQELEDKYPELEDAKDRENAICKELGCVFVMQIGDVLKSGKRHDGRAPDYDDWKLNGDILFWYEPLQCALELSSMGIRVDEDSMVEQLKKTGDEDRLKLQYHKMILNKELPYTIGGGIGQSRLCMLLLGKAHVGEVQASIWPDEMLKKCEENGIHIL
notes: full-length asnA product (~40 kDa) from plasmid pMA5, expressed in Bacillus subtilis WB600; Ni-NTA purification described in methods
In the case of B1, the values for the Km (in the data set “purified protein [1]”; in “purified protein [2]”; in data set [3]) were 6500 µM, 780 µM and 2240 µM, respectively.

As usually defined, the Km is the substrate concentration at which the rate is half of its maximum.

The values are drawn from paper PMC8495130, “Synthesis of L-asparagine Catalyzed by a Novel Asparagine Synthase Coupled With an ATP Regeneration System” (Frontiers in Bioengineering and Biotechnology, 2021).
